Experimental data taken from US20220178930A1.
Several values for one entry are separate records, joined by “and”; a condition that tells them apart may be missing. Identical values can stand only once.

How the values were obtained:
Galectin-9 (human) [1] = target: Galectin-9 (human) (UniProt O00182); assay: flow cytometry, CD3+ T cells, S3 organoid fraction, CRC
Galectin-9 (human) [2] = target: Galectin-9 (human) (UniProt O00182); assay: flow cytometry, CD3+ T cells, S3 organoid fraction, HCC
Galectin-9 (human) [3] = target: Galectin-9 (human) (UniProt O00182); assay: flow cytometry, CD3+ T cells, S3 organoid fraction, PDA
Galectin-9 (human) [4] = target: Galectin-9 (human) (UniProt O00182); assay: flow cytometry, CD3+ T cells, S2 single cell fraction, CRC
Galectin-9 (human) [5] = target: Galectin-9 (human) (UniProt O00182); assay: flow cytometry, CD3+ T cells, S2 single cell fraction, PDA
Galectin-9 (human) [6] = target: Galectin-9 (human) (UniProt O00182); assay: flow cytometry, EPCAM+ tumor cells, S3 organoid fraction, CRC
Galectin-9 (human) [7] = target: Galectin-9 (human) (UniProt O00182); assay: flow cytometry, EPCAM+ tumor cells, S3 organoid fraction, HCC
Galectin-9 (human) [8] = target: Galectin-9 (human) (UniProt O00182); assay: flow cytometry, EPCAM+ tumor cells, S3 organoid fraction, PDA
Galectin-9 (human) [9] = target: Galectin-9 (human) (UniProt O00182); assay: flow cytometry, CD11b+ myeloid cells, S3 organoid fraction, CRC
Galectin-9 (human) [10] = target: Galectin-9 (human) (UniProt O00182); assay: flow cytometry, CD11b+ myeloid cells, S3 organoid fraction, HCC
Galectin-9 (human) [11] = target: Galectin-9 (human) (UniProt O00182); assay: flow cytometry, CD11b+ myeloid cells, S3 organoid fraction, PDA
Galectin-9 (human) [12] = target: Galectin-9 (human) (UniProt O00182); assay: flow cytometry, EPCAM+ tumor cells, S2 single cell fraction, CRC
Galectin-9 (human) [13] = target: Galectin-9 (human) (UniProt O00182); assay: flow cytometry, EPCAM+ tumor cells, S2 single cell fraction, PDA
Galectin-9 (human) [14] = target: Galectin-9 (human) (UniProt O00182); assay: flow cytometry, CD3+ T cells, S3 organoid fraction, Pancreas NET
Galectin-9 (human) [15] = target: Galectin-9 (human) (UniProt O00182); assay: flow cytometry, CD11b+ myeloid cells, S2 single cell fraction, CRC
Galectin-9 (human) [16] = target: Galectin-9 (human) (UniProt O00182); assay: flow cytometry, CD11b+ myeloid cells, S2 single cell fraction, PDA
Galectin-9 (human) [17] = target: Galectin-9 (human) (UniProt O00182); assay: flow cytometry, EPCAM+ tumor cells, S3 organoid fraction, Liver NET
Galectin-9 (human) [18] = target: Galectin-9 (human) (UniProt O00182); assay: flow cytometry, CD3+ T cells, S2 single cell fraction, Pancreas NET
Galectin-9 (human) [19] = target: Galectin-9 (human) (UniProt O00182); assay: flow cytometry, EPCAM+ tumor cells, S2 single cell fraction, Liver NET
Galectin-9 (human) [20] = target: Galectin-9 (human) (UniProt O00182); assay: flow cytometry, EPCAM+ tumor cells, S3 organoid fraction, Pancreas NET
Galectin-9 (human) [21] = target: Galectin-9 (human) (UniProt O00182); assay: flow cytometry, CD11b+ myeloid cells, S3 organoid fraction, Pancreas NET
Galectin-9 (human) [22] = target: Galectin-9 (human) (UniProt O00182); assay: flow cytometry, CD3+ T cells, S3 organoid fraction, CRC liver metastasis
Galectin-9 (human) [23] = target: Galectin-9 (human) (UniProt O00182); assay: flow cytometry, EPCAM+ tumor cells, S2 single cell fraction, Pancreas NET
Galectin-9 (human) [24] = target: Galectin-9 (human) (UniProt O00182); assay: flow cytometry, CD11b+ myeloid cells, S2 single cell fraction, Pancreas NET
Galectin-9 (human) [25] = target: Galectin-9 (human) (UniProt O00182); assay: flow cytometry, CD3+ T cells, S2 single cell fraction, CRC liver metastasis
Galectin-9 (human) [26] = target: Galectin-9 (human) (UniProt O00182); assay: flow cytometry, EPCAM+ tumor cells, S3 organoid fraction, CRC liver metastasis
Galectin-9 (human) [27] = target: Galectin-9 (human) (UniProt O00182); assay: flow cytometry, CD11b+ myeloid cells, S3 organoid fraction, CRC liver metastasis
Galectin-9 (human) [28] = target: Galectin-9 (human) (UniProt O00182); assay: flow cytometry, EPCAM+ tumor cells, S2 single cell fraction, CRC liver metastasis
Galectin-9 (human) [29] = target: Galectin-9 (human) (UniProt O00182); assay: flow cytometry, CD11b+ myeloid cells, S2 single cell fraction, CRC liver metastasis

Chain of Galectin-9 (human) (O00182 whole entry): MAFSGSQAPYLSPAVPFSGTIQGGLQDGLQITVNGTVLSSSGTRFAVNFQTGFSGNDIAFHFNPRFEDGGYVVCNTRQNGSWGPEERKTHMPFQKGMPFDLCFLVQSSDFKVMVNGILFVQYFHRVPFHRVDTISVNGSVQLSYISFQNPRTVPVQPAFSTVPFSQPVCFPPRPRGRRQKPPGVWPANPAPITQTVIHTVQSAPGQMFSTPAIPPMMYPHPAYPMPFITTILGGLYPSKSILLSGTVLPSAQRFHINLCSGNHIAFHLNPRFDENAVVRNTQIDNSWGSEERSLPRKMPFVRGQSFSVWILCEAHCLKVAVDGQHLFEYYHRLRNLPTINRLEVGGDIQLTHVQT

Question: With Fab isotype as the substance, how does the % Gal9 expression based on staining (Galectin-9 (human) [1]) read?
Answer: Its % Gal9 expression based on staining is 0% and 15.3% and 0.87%.

Question: And the % Gal9 expression based on staining (Galectin-9 (human) [2])?
Answer: Its % Gal9 expression based on staining is 1.14%.

Question: What about the % Gal9 expression based on staining (Galectin-9 (human) [3]) of the same substance?
Answer: The % Gal9 expression based on staining was 0% and 0.59%.

Question: And the % Gal9 expression based on staining (Galectin-9 (human) [4])?
Answer: The % Gal9 expression based on staining was 2.5% and 1.59%.

Question: What about the % Gal9 expression based on staining (Galectin-9 (human) [5]) of the same substance?
Answer: The % Gal9 expression based on staining was 0% and 0.52%.

Question: And the % Gal9 expression based on staining (Galectin-9 (human) [6])?
Answer: Its % Gal9 expression based on staining is 0.21% and 2.27% and 0.55%.

Question: What about the % Gal9 expression based on staining (Galectin-9 (human) [7]) of the same substance?
Answer: Its % Gal9 expression based on staining is 5.84%.

Question: And the % Gal9 expression based on staining (Galectin-9 (human) [8])?
Answer: The % Gal9 expression based on staining was 0.17% and 0.94%.

Question: What about the % Gal9 expression based on staining (Galectin-9 (human) [9]) of the same substance?
Answer: The % Gal9 expression based on staining was 0.38% and 11.8% and 2.4%.

Question: What about the % Gal9 expression based on staining (Galectin-9 (human) [10]) of the same substance?
Answer: Its % Gal9 expression based on staining is 1.72%.

Question: What about the % Gal9 expression based on staining (Galectin-9 (human) [11]) of the same substance?
Answer: Its % Gal9 expression based on staining is 3.83% and 0.54%.

Question: What about the % Gal9 expression based on staining (Galectin-9 (human) [12]) of the same substance?
Answer: Its % Gal9 expression based on staining is 0.64% and 3.97%.

Question: What about the % Gal9 expression based on staining (Galectin-9 (human) [13]) of the same substance?
Answer: Its % Gal9 expression based on staining is 0.15% and 0.88%.

Question: And the % Gal9 expression based on staining (Galectin-9 (human) [14])?
Answer: Its % Gal9 expression based on staining is 4.96%.

Question: And the % Gal9 expression based on staining (Galectin-9 (human) [15])?
Answer: The % Gal9 expression based on staining was 2.86% and 5.84%.

Question: And the % Gal9 expression based on staining (Galectin-9 (human) [16])?
Answer: The % Gal9 expression based on staining was 1.19% and 0%.

Question: What about the % Gal9 expression based on staining (Galectin-9 (human) [17]) of the same substance?
Answer: Its % Gal9 expression based on staining is 0.02%.

Question: What about the % Gal9 expression based on staining (Galectin-9 (human) [18]) of the same substance?
Answer: The % Gal9 expression based on staining was 32.2%.

Question: What about the % Gal9 expression based on staining (Galectin-9 (human) [19]) of the same substance?
Answer: The % Gal9 expression based on staining was 0.45%.

Question: What about the % Gal9 expression based on staining (Galectin-9 (human) [20]) of the same substance?
Answer: Its % Gal9 expression based on staining is 4.19%.

Question: What about the % Gal9 expression based on staining (Galectin-9 (human) [21]) of the same substance?
Answer: The % Gal9 expression based on staining was 1.87%.

Question: And the % Gal9 expression based on staining (Galectin-9 (human) [22])?
Answer: The % Gal9 expression based on staining was 0%.

Question: And the % Gal9 expression based on staining (Galectin-9 (human) [23])?
Answer: Its % Gal9 expression based on staining is 2.41%.

Question: And the % Gal9 expression based on staining (Galectin-9 (human) [24])?
Answer: Its % Gal9 expression based on staining is 16.2%.

Question: And the % Gal9 expression based on staining (Galectin-9 (human) [25])?
Answer: The % Gal9 expression based on staining was 0.56%.

Question: What about the % Gal9 expression based on staining (Galectin-9 (human) [26]) of the same substance?
Answer: The % Gal9 expression based on staining was 0.06%.

Question: What about the % Gal9 expression based on staining (Galectin-9 (human) [27]) of the same substance?
Answer: The % Gal9 expression based on staining was 1.5%.

Question: What about the % Gal9 expression based on staining (Galectin-9 (human) [28]) of the same substance?
Answer: The % Gal9 expression based on staining was 0.15%.

Question: What about the % Gal9 expression based on staining (Galectin-9 (human) [29]) of the same substance?
Answer: The % Gal9 expression based on staining was 1.2%.
